Measurements: patent US20240400614A1, “CLEAVABLE PEPTIDES AND METHODS OF USE THEREOF” (Bright Peak Therapeutics AG, priority 2023, published 2024)
Square brackets hold non-standard residues; d marks the D form. Ends that are not written are not given here. Tyr(3-NO2) = N[C@@H](Cc1ccc(O)c([N+](=O)[O-])c1)C(=O)O; 2Abz = Nc1ccccc1C(=O)O

Tests used:
Assay type in all cases: biochemical
matriptase = biological target: T1, matriptase (Homo sapiens, UniProt Q9Y5Y6); assay: FRET peptide cleavage efficiency with matriptase
T1 construct: purchased R&D Systems 3946-SEB
T1 sequence (Q9Y5Y6 615-855 limits assumed): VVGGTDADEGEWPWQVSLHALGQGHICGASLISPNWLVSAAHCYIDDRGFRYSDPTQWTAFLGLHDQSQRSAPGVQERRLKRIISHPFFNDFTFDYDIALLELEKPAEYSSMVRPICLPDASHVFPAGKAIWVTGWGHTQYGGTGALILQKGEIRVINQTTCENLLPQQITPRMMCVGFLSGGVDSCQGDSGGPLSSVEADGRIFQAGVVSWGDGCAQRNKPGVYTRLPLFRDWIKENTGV

MMP-9 = biological target: T2, MMP-9 (Homo sapiens, UniProt P14780); assay: FRET peptide cleavage efficiency with MMP-9 (standard pH 7.5; also pH 6.5)
T2 construct: purchased SIGMA PF024
T2 sequence (P14780 94-707): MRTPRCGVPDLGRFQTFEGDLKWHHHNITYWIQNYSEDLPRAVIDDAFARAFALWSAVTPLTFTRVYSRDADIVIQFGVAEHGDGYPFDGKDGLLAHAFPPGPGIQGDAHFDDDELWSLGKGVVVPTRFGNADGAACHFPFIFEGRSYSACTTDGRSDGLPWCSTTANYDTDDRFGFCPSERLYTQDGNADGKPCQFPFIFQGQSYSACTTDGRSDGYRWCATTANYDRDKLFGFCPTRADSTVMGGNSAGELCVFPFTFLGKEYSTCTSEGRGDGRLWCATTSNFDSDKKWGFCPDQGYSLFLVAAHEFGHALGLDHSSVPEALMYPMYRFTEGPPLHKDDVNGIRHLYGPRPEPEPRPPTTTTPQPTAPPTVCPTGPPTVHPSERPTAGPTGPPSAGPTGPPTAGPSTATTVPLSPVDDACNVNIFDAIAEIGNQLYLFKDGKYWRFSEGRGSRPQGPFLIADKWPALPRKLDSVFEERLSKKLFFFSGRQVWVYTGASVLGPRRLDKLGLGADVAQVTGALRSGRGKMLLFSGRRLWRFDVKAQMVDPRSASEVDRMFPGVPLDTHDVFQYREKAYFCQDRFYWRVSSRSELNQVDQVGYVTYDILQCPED

MMP-7 = biological target: T3, MMP-7 (Homo sapiens, UniProt P09237); assay: FRET peptide cleavage efficiency with MMP-7 (standard pH 7.5; also pH 6.5)
T3 construct: purchased SIGMA CC1059
T3 sequence (P09237 95-267): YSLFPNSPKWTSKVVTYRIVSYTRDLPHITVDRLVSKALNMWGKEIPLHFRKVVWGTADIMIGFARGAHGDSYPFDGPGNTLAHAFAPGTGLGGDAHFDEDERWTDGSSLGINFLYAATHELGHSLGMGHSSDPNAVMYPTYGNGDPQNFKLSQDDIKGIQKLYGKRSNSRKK

MMP-2 = biological target: T4, MMP-2 (Homo sapiens, UniProt P08253); assay: FRET peptide cleavage efficiency with MMP-2
T4 construct: purchased SIGMA PF023
T4 sequence (P08253 110-660): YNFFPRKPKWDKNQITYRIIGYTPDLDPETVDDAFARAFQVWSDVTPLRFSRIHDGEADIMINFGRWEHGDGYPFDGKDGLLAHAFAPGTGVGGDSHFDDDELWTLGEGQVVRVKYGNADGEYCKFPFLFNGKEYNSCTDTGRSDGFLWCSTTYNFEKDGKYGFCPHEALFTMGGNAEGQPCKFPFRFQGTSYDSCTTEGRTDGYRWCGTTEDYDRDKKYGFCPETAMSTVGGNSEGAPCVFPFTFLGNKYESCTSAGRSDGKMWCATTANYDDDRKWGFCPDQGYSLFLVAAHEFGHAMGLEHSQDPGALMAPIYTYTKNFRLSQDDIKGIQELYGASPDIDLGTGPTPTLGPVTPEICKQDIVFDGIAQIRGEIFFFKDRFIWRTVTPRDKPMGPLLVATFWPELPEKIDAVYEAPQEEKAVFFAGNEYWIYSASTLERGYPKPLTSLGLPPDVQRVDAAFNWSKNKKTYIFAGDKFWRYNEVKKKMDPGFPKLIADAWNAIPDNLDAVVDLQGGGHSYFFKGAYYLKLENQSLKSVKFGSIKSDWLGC

uPA = uPA (Homo sapiens, UniProt P00749); assay: FRET peptide cleavage efficiency with uPA
[1] = t = 15 min, standard conditions (Table 8)
[2] = t = 60 min, standard conditions (Table 8)
[3] = t = 120 min, standard conditions (Table 8)
[4] = t = 15 min, 200 uM linker, 1 ug/ml protease, 37° C., buffer B pH 9.0
[5] = t = 60 min, 200 uM linker, 1 ug/ml protease, 37° C., buffer B pH 9.0
[6] = 200 uM linker, 1 ug/ml protease, 37° C., buffer B pH 9.0
[7] = t = 15 min, 200 uM linker, 1 ug/ml protease, 37° C., buffer C pH 7.5
[8] = t = 60 min, 200 uM linker, 1 ug/ml protease, 37° C., buffer C pH 7.5
[9] = t = 120 min, 200 uM linker, 1 ug/ml protease, 37° C., buffer C pH 7.5
[10] = t = 15 min, 200 uM linker, 1 ug/ml protease, 37° C., buffer A pH 8.5
[11] = t = 60 min, 200 uM linker, 1 ug/ml protease, 37° C., buffer A pH 8.5
[12] = t = 120 min, 200 uM linker, 1 ug/ml protease, 37° C., buffer A pH 8.5

Row | % cleavage MMP-9 t = 15 min (MMP-9; t = 15 min (Table 9)) | % cleavage MMP-9 t = 60 min (MMP-9; t = 60 min (Table 9)) | % cleavage MMP-9 t = 120 min (MMP-9; t = 120 min (Table 9)) | % cleavage MMP-7 t = 15 min (MMP-7; t = 15 min (Table 9)) | % cleavage MMP-7 t = 60 min (MMP-7; t = 60 min (Table 9)) | % cleavage MMP-7 t = 120 min (MMP-7; t = 120 min (Table 9)) | % cleavage MMP-2 t = 15 min (MMP-2; t = 15 min (Table 9)) | % cleavage MMP-2 t = 60 min (MMP-2; t = 60 min (Table 9)) | % cleavage MMP-2 t = 120 min (MMP-2; t = 120 min (Table 9)) | % cleavage Matriptase t = 15 min (matriptase; pH 6.5, t = 15 min (Table 7)) | % cleavage Matriptase t = 60 min (matriptase; pH 6.5, t = 60 min (Table 7)) | % cleavage Matriptase t = 15 min (matriptase; pH 7.5, t = 15 min (Table 7)) | % cleavage Matriptase t = 60 min (matriptase; pH 7.5, t = 60 min (Table 7)) | % cleavage Matriptase t = 15 min (matriptase; [4]) | % cleavage Matriptase t = 60 min (matriptase; [5]) | % cleavage Matriptase t = 120 min (matriptase; [6]) | % cleavage MMP-2 t = 15 min (MMP-2; pH 6.5, t = 15 min (Table 7)) | % cleavage MMP-2 t = 60 min (MMP-2; pH 6.5, t = 60 min (Table 7)) | % cleavage MMP-2 t = 15 min (MMP-2; pH 7.5, t = 15 min (Table 7)) | % cleavage MMP-2 t = 60 min (MMP-2; pH 7.5, t = 60 min (Table 7)) | Sequence | also measured
1 | 55% | 100% | 100% | 59% | 100% | 100% | 49% | 91% | 100% | – | – | – | – | – | – | – | – | – | – | – | SGRVAPYMLQG ([2Abz]SGRVAPYMLQG[Tyr(3-NO2)]-NH2) [LNK042] | % cleavage Matriptase t = 15 min (matriptase; [1]): 28%; % cleavage Matriptase t = 60 min (matriptase; [2]): 80%; % cleavage Matriptase t = 120 min (matriptase; standard conditions (Table 8)): 100%; % cleavage MMP-9 t = 15 min (MMP-9; [1]): 55%; % cleavage MMP-9 t = 60 min (MMP-9; [2]): 100%; % cleavage MMP-9 t = 120 min (MMP-9; [3]): 100%; % cleavage MMP-7 t = 15 min (MMP-7; [1]): 59%; % cleavage MMP-7 t = 60 min (MMP-7; [2]): 100%; % cleavage MMP-7 t = 120 min (MMP-7; [3]): 100%; % cleavage MMP-2 t = 60 min (MMP-2; [2]): 91%; % cleavage MMP-2 t = 120 min (MMP-2; [3]): 100%; % vcleavage uPA t = 15 min (uPA; [1]): 2%; % cleavage uPA t = 60 min (uPA; [2]): 6%; % cleavage uPA t = 120 min (uPA; [3]): 13%
2 | 98% | 99% | 100% | 25% | 79% | 100% | 91% | 96% | 100% | 70% | 100% | 100% | 100% | 97% | 95% | 95% | 100% | 100% | 100% | 100% | SGRVLRKAGPANLVG ([2Abz]SGRVLRKAGPANLVG[Tyr(3-NO2)]-NH2) [LNK014] | % cleavage MMP-2 t = 15 min (MMP-2; [7]): 93%; % cleavage MMP-2 t = 60 min (MMP-2; [8]): 97%; % cleavage MMP-2 t = 120 min (MMP-2; [9]): 97%; % cleavage uPA t = 60 min (uPA; pH 6.5, t = 60 min (Table 7)): 0%; % cleavage uPA t = 120 min (uPA; pH 6.5, t = 120 min (Table 7)): 0%; % cleavage uPA t = 60 min (uPA; pH 7.5, t = 60 min (Table 7)): 0%; % cleavage uPA t = 120 min (uPA; pH 7.5, t = 120 min (Table 7)): 0%; % cleavage uPA t = 15 min (uPA; [10]): 0%; % cleavage uPA t = 60 min (uPA; [11]): 2%; % cleavage uPA t = 120 min (uPA; [12]): 7%
3 | 22% | 72% | 93% | 19% | 62% | 86% | 7% | 34% | 59% | 48% | 93% | 98% | 100% | 96% | 91% | 88% | 5% | 39% | 6% | 28% | SGRVLRKAGPQPLVD ([2Abz]SGRVLRKAGPQPLVD[Tyr(3-NO2)]-NH2) [LNK003] | % cleavage MMP-2 t = 15 min (MMP-2; [7]): 8%; % cleavage MMP-2 t = 60 min (MMP-2; [8]): 38%; % cleavage MMP-2 t = 120 min (MMP-2; [9]): 65%; % cleavage uPA t = 60 min (uPA; pH 6.5, t = 60 min (Table 7)): 0%; % cleavage uPA t = 120 min (uPA; pH 6.5, t = 120 min (Table 7)): 0%; % cleavage uPA t = 60 min (uPA; pH 7.5, t = 60 min (Table 7)): 0%; % cleavage uPA t = 120 min (uPA; pH 7.5, t = 120 min (Table 7)): 0%; % cleavage uPA t = 15 min (uPA; [10]): 3%; % cleavage uPA t = 60 min (uPA; [11]): 10%; % cleavage uPA t = 120 min (uPA; [12]): 20%
